The results in this text go back to IntAct's records for PubMed 34606829.

B1: ALK tyrosine kinase receptor (Homo sapiens), Q9UM73 (parent)
chain: MGAIGLLWLLPLLLSTAAVGSGMGTGQRAGSPAAGPPLQPREPLSYSRLQRKSLAVDFVVPSLFRVYARDLLLPPSSSELKAGRPEARGSLALDCAPLLRLLGPAPGVSWTAGSPAPAEARTLSRVLKGGSVRKLRRAKQLVLELGEEAILEGCVGPPGEAAVGLLQFNLSELFSWWIRQGEGRLRIRLMPEKKASEVGREGRLSAAIRASQPRLLFQIFGTGHSSLESPTNMPSPSPDYFTWNLTWIMKDSFPFLSHRSRYGLECSFDFPCELEYSPPLHDLRNQSWSWRRIPSEEASQMDLLDGPGAERSKEMPRGSFLLLNTSADSKHTILSPWMRSSSEHCTLAVSVHRHLQPSGRYIAQLLPHNEAAREILLMPTPGKHGWTVLQGRIGRPDNPFRVALEYISSGNRSLSAVDFFALKNCSEGTSPGSKMALQSSFTCWNGTVLQLGQACDFHQDCAQGEDESQMCRKLPVGFYCNFEDGFCGWTQGTLSPHTPQWQVRTLKDARFQDHQDHALLLSTTDVPASESATVTSATFPAPIKSSPCELRMSWLIRGVLRGNVSLVLVENKTGKEQGRMVWHVAAYEGLSLWQWMVLPLLDVSDRFWLQMVAWWGQGSRAIVAFDNISISLDCYLTISGEDKILQNTAPKSRNLFERNPNKELKPGENSPRQTPIFDPTVHWLFTTCGASGPHGPTQAQCNNAYQNSNLSVEVGSEGPLKGIQIWKVPATDTYSISGYGAAGGKGGKNTMMRSHGVSVLGIFNLEKDDMLYILVGQQGEDACPSTNQLIQKVCIGENNVIEEEIRVNRSVHEWAGGGGGGGGATYVFKMKDGVPVPLIIAAGGGGRAYGAKTDTFHPERLENNSSVLGLNGNSGAAGGGGGWNDNTSLLWAGKSLQEGATGGHSCPQAMKKWGWETRGGFGGGGGGCSSGGGGGGYIGGNAASNNDPEMDGEDGVSFISPLGILYTPALKVMEGHGEVNIKHYLNCSHCEVDECHMDPESHKVICFCDHGTVLAEDGVSCIVSPTPEPHLPLSLILSVVTSALVAALVLAFSGIMIVYRRKHQELQAMQMELQSPEYKLSKLRTSTIMTDYNPNYCFAGKTSSISDLKEVPRKNITLIRGLGHGAFGEVYEGQVSGMPNDPSPLQVAVKTLPEVCSEQDELDFLMEALIISKFNHQNIVRCIGVSLQSLPRFILLELMAGGDLKSFLRETRPRPSQPSSLAMLDLLHVARDIACGCQYLEENHFIHRDIAARNCLLTCPGPGRVAKIGDFGMARDIYRASYYRKGGCAMLPVKWMPPEAFMEGIFTSKTDTWSFGVLLWEIFSLGYMPYPSKSNQEVLEFVTSGGRMDPPKNCPGPVYRIMTQCWQHQPEDRPNFAIILERIEYCTQDPDVINTALPIEYGPLVEEEEKVPVRPKDPEGVPPLLVSQQAKREEERSPAAPPPLPTTSSGKAAKKPTAAEISVRVPRGPAVEGGHVNMAFSQSNPPSELHKVHGSRNKPTSLWNPTYGSWFTEKPTKKNNPIAKKEPHDRGNLGLEGSCTVPPNVATGRLPGASLLLEPSSLTANMKEVPLFRLRHFPCGNVNYGYQQQGLPLEAATAPGAGHYEDTILKSKNSMNQPGP
partner: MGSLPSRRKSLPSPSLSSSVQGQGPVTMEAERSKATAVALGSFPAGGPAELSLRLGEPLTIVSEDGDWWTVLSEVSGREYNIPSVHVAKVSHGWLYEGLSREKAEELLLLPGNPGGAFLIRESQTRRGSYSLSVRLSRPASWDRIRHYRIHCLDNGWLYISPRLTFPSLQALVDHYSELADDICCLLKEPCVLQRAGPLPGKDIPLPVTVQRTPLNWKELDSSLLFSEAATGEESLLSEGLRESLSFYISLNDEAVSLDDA
B2: ALK tyrosine kinase receptor (Homo sapiens), Q9UM73 (parent)
chain: B1 chain
partner: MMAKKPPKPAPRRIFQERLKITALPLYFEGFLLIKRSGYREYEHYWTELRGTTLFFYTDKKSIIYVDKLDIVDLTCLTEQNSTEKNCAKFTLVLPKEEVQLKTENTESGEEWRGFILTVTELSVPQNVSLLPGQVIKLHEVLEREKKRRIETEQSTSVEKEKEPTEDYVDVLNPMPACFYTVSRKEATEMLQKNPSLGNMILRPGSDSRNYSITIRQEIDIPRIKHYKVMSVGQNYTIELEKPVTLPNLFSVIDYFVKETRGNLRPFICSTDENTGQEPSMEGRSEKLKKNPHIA
B3: ALK tyrosine kinase receptor (Homo sapiens), Q9UM73 (parent)
chain: B1 chain
partner: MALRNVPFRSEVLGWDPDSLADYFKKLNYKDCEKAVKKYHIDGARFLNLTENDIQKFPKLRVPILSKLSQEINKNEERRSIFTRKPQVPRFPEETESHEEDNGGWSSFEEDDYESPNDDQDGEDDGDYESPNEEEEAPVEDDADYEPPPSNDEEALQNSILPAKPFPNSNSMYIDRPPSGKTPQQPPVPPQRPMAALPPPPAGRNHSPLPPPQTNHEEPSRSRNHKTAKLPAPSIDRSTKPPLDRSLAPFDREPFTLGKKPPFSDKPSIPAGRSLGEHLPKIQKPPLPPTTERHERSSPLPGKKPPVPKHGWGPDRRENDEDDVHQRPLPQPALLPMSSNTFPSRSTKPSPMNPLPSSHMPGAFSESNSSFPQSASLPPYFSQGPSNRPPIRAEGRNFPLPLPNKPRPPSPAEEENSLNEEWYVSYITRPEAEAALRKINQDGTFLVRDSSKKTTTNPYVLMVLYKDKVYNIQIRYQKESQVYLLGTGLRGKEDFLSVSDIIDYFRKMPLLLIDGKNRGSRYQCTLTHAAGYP
B4: ALK tyrosine kinase receptor (Homo sapiens), Q9UM73 (parent)
chain: B1 chain
partner: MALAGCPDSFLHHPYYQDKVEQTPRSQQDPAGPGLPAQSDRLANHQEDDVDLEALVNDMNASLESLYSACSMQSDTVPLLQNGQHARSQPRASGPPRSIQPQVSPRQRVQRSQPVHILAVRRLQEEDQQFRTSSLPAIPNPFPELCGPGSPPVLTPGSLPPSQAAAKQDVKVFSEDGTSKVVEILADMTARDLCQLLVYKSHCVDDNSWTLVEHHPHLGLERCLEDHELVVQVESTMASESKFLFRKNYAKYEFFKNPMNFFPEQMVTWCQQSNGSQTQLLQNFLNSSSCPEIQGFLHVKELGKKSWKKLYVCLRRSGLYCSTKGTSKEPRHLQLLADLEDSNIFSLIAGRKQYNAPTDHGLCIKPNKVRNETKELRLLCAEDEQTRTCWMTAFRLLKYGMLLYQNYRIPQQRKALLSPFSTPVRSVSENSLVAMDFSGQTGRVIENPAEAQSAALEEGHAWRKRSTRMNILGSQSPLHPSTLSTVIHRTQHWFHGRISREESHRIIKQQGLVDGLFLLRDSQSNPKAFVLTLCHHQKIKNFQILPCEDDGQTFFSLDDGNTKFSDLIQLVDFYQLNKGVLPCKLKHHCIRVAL
B5: ALK tyrosine kinase receptor (Homo sapiens), Q9UM73 (parent)
chain: B1 chain
partner: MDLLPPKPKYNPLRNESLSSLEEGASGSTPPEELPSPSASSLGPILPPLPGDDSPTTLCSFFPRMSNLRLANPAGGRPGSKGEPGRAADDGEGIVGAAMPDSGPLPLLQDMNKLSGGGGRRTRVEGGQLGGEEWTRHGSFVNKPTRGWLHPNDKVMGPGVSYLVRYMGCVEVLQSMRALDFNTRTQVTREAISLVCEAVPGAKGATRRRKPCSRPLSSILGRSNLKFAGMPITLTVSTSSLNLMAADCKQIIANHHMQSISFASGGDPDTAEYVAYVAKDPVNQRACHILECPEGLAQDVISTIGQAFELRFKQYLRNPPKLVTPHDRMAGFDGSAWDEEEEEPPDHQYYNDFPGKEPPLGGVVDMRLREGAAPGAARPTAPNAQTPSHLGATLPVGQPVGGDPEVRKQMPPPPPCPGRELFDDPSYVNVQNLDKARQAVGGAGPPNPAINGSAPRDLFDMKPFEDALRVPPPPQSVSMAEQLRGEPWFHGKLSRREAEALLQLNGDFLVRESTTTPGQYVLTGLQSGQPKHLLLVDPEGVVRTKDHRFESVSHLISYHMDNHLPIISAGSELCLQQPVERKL

The first test covers variants of B1. The settings on record: with slap2_human SLA2, Q9H6Q3.
Take L1196M: the “effect of a mutation on the interaction” value is recorded as “increasing interaction strength”.

Turning to F1245C, the “effect of a mutation on the interaction” value was “increasing interaction strength”.

Another test covers variants of B2. The settings on record: with stap1_human STAP1, Q9ULZ2.
As to I1250T, the “effect of a mutation on the interaction” value was “decreasing interaction strength”. For L1196M, the “effect of a mutation on the interaction” value is given as “increasing interaction strength”. Same read-out and setting: with F1245C the entry was “increasing interaction strength”.

In a further test the parent is B3. The settings on record: with lcp2_human LCP2, Q13094.
Take F1245C: the “effect of a mutation on the interaction” value was “increasing interaction strength”.

As for L1196M, the “effect of a mutation on the interaction” value is on record as “increasing interaction strength”.

Regarding I1250T, the “effect of a mutation on the interaction” value was “decreasing interaction strength”.

The variants in the next test derive from B4. Conditions: with grb10_human GRB10, Q13322.
I1250T: the “effect of a mutation on the interaction” value is “decreasing interaction strength”. With L1196M, the “effect of a mutation on the interaction” value was “increasing interaction strength”. F1245C: the “effect of a mutation on the interaction” value is reported as “increasing interaction strength”.

In a further test the parent is B5. Conditions: with shc1_human SHC1, P29353.
Take F1245C: the “effect of a mutation on the interaction” value was “increasing interaction strength”. For I1250T, the “effect of a mutation on the interaction” value is listed as “decreasing interaction strength”. On the same count and under the same terms, the result for L1196M reads “increasing interaction strength”.
